In the RNAGym collection of RNA variant scans (doi:10.1093/nar/gkz1192) one finds self-cleavage data, which are given here for 167 variants.

First the molecules themselves.
B1: CPEB3 Ribozyme (parent)
chain: UAACAGGGGGCCACAGCAGAAGCGUUCACGUCGCAGCCCCUGUCAGAUUCUGGUGAAUCUGCGAAUUCUGCUGUAUAUCUC

The data set covers variants of B1. Kind of data set: self-cleavage, relative activity (ratio to wild type); higher = more cleavage; in vitro, sequencing. Summed up:
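Relative activity compares each variant's cleaved/total read fraction with that of the unmutated ribozyme. To get these fractions, barcoded CPEB3 ribozyme libraries from rounds of error-prone PCR were transcribed with T7 RNA polymerase for 5 hours at 37°C and then given 15 min of DNase I treatment before EDTA was added. The RNAs were reverse transcribed with template switching and sequenced on Illumina, and DNA sequencing linked barcodes to variants. A minimum of 5 reads applied, and three batches were averaged.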
Turning to U58A A65G, the self-cleavage stood at 0.17.

Turning to U58A A65U, the self-cleavage amounted to 0.13. Then U58C A64U, with 0.33; and U58C A64G, with 0.36. As for A57G C71U, the figure is 0.32; as for A57U C59U, 0.21; as for A57C U58C, 0.3. Then U58C G73A, with 1.24; and A57C U67C, with 0.27; and A56G U69A, with 0.5. A56G U69C: the self-cleavage stood at 0.43.

A56G U69G: the self-cleavage is 0.54. As for A57U A75G, the self-cleavage was determined as 0.69.

For A57U A75U, the self-cleavage came to 1.08. Turning to A56U A77U, the self-cleavage was determined as 0.73. On to A56U A77C, for which the self-cleavage amounted to 0.62. On to A56U A77G, for which the self-cleavage turned out to be 0.71. Then C59A A65U, with 0.05.

Take C59A A65G: the self-cleavage was 0.13.

On to A57C C62U, for which the self-cleavage was 0.14. Then A57G A75U, with 1.01; and A57G A75G, with 0.74; and A56U, with 0.74. As for A57C A75U, the figure is 0.58.

As to A56U U74C, the self-cleavage is 1.06. Regarding A56U U74A, the self-cleavage came out at 1.17.

As for U58C G63A, the self-cleavage amounted to 0.51.

For U58C G63C, the self-cleavage came out at 0.54. As for U58C G63U, the figure is 0.91; as for A57G C62U, 0.33. As for U58A C62U, the figure is 0.23; as for A56U C62U, 0.21; as for A57G U74A, 1.2. Then A57G U74G, with 1.23.

As to A57G U74C, the self-cleavage stood at 1.15. Then A57C U78C, with 0.66; and A57C U78A, with 0.4; and A56G A75C, with 1.12.

Turning to A56G A75G, the self-cleavage amounted to 0.64. As for A56G A75U, the figure is 0.95; as for U58A C68U, 0.23; as for U58C A65C, 0.14. In the case of U58C A65U, the self-cleavage worked out at 0.21. As for U58C A65G, the figure is 0.27. For the variant A57G U69A, the self-cleavage was found to be 0.54.

Consider A57G U69C, for which the self-cleavage was 0.48. As for A57G U69G, the figure is 0.72; as for A57G C68G, 0.4. Then A57G C68U, with 0.77.

With U58G U80C, the self-cleavage came to 0.27.

For A57U A65G, the self-cleavage came to 0.22.

In the case of A56U U78C, the self-cleavage was determined as 0.61. As for A56U U78A, the figure is 0.95; as for A56U U78G, 0.58; as for U58C U66G, 0.23. Then U58C U66C, with 0.28.

In the case of U58A U80A, the self-cleavage worked out at 0.5. Take U58A U80C: the self-cleavage stood at 0.46.

As to A57U A64U, the self-cleavage is 0.21. As for A57U A64G, the figure is 0.75; as for A57U C62U, 0.21; as for A56U G61A, 0.29. As for U58G U72G, the figure is 0.44. As for U58G U72C, the figure is 0.28; as for U58G U72A, 0.24. Consider A56G G73U, for which the self-cleavage came out at 1.15.

Turning to A56G G73C, the self-cleavage came out at 1.26. As for A56G C79A, the figure is 1.18; as for A56G C79G, 1.16. Turning to A56G U72A, the self-cleavage is 0.64. Then A56G U72C, with 0.93; and A56G U72G, with 0.63; and A56G U58A, with 0.32.

Take A56G U58G: the self-cleavage turned out to be 0.22.

With A56G U58C, the self-cleavage amounted to 0.38.

On to A56U U69C, for which the self-cleavage came out at 0.38. As for A56U U69G, the figure is 0.46; as for A56U U69A, 0.33. As for A57G A77U, the figure is 0.9; as for A57G A77G, 0.87. As for A56U C59U, the figure is 0.19; as for A56U C59G, 0.13; as for A56U C59A, 0.28. With U58C C68A, the self-cleavage was found to be 0.2. As for A56G C68A, the figure is 0.32. In the case of A56G C68U, the self-cleavage was found to be 0.77. Then U58C A75G, with 0.46; and U58C A75U, with 0.7.

For the variant U58C U74C, the self-cleavage is 0.87. Then A56G C81A, with 0.96. As for A56G C81G, the figure is 1.22; as for A56G C81U, 1.13; as for A56U A57G, 0.47. As for A56U A57U, the figure is 0.59; as for A57U U80C, 0.92.

On to A57U U80A, for which the self-cleavage was 0.55. As for A57G U80C, the figure is 1; as for A57G U80G, 1.12; as for A57G U80A, 1.06.

For the variant U58G U78A, the self-cleavage is 0.4. Then U58G U78C, with 0.34; and A56U U72C, with 0.81. In the case of A56U U72A, the self-cleavage is 0.46. For A56U U72G, the self-cleavage turned out to be 0.5.

For the variant U58C C71A, the self-cleavage worked out at 0.37. As to U58C C71U, the self-cleavage amounted to 0.41. Then U58C G70A, with 0.37; and U58C C79U, with 0.6.

Regarding A56U U66C, the self-cleavage was 0.32. Then A56U U66A, with 0.25; and U58G A64U, with 0.17. Then A56G U66C, with 0.29.

As to A56G U66A, the self-cleavage came to 0.44. Then A56G U66G, with 0.38. Then A57C A65G, with 0.17; and A57G G63A, with 0.84; and U58C C81G, with 0.82. Then U58C C81A, with 0.75. Turning to U58C C81U, the self-cleavage was determined as 0.68. Then U58C U60G, with 0.24; and U58C U60C, with 0.3. For the variant U58C U60A, the self-cleavage was found to be 0.26. Then A56G U67A, with 0.46. Then A56G U67C, with 0.3; and U58G U60A, with 0.18. On to U58G U60C, for which the self-cleavage came out at 0.3. As for A57U U78A, the figure is 1.21; as for A57U U78C, 0.68.

For the variant A57U U78G, the self-cleavage came out at 0.75. Then U58A U66C, with 0.29. As for U58G G70A, the figure is 0.19; as for A57G C81G, 1.2. As for A57G C81U, the figure is 1.13. On to A57G U78G, for which the self-cleavage was 1.12. As for A57G U78A, the figure is 0.97; as for A57G U78C, 0.83.

With U58C U69G, the self-cleavage came to 0.15. On to U58C U69C, for which the self-cleavage worked out at 0.27. As for U58C U69A, the figure is 0.3. In the case of A57G U66G, the self-cleavage amounted to 0.53. Take A57G U66A: the self-cleavage was 0.37. Then A57G U66C, with 0.4. Then U58C U72A, with 0.39; and U58C U72C, with 0.59. For the variant U58C U72G, the self-cleavage was found to be 0.55. Then U58G U76A, with 0.51.

In the case of U58C A77G, the self-cleavage came out at 0.56. As for U58C A77U, the figure is 0.65; as for U58C A77C, 0.26; as for A57U U74A, 1.23. As for A57U U74C, the self-cleavage came out at 1.03.

As for U58A U74A, the self-cleavage was found to be 0.6.

As to U58A U74C, the self-cleavage worked out at 0.67. As for A57G U58A, the figure is 0.28. As for A57G U58C, the self-cleavage came out at 0.33. Then A57G U58G, with 0.22.

Consider A57C U60A, for which the self-cleavage turned out to be 0.14. As for U58G U69C, the figure is 0.2; as for A57G U72G, 1.01; as for A57G U72C, 1.05. Then A57G U72A, with 0.62; and A57C A77G, with 0.45; and C59A, with 0.37. Then A57G A64U, with 0.36; and A57G A64G, with 0.81. Take A57G A65G: the self-cleavage came to 0.37. With A57G A65U, the self-cleavage came to 0.32.
